This data set addresses N-NTD (SARS-CoV-2 (Wuhan-Hu-1)) (UniProt P0DTC9). Nature of the data set: DSF. To be noted: 10 mM Tris-HCl pH 7.4, 150 mM NaCl, 1 mM MgCl2, BLI with 0.05% Tween-20.

This note sets out measurements from article PMC11602162.

With TCGGACATCGGAATGTCTGA [A58-20 T6-to-A], the binding signal is -0.5 C (Tm shift).
